Data reported in patent publication US8088387B2, “Method of targeting specific cell populations using cell-binding agent maytansinoid conjugates linked via a non-cleavable linker, said conjugates, and methods of making said conjugates” (Immunogen Inc., priority 2003, dated 2012).

Assays:
[1] = test system: COLO 205 colon tumor xenografts; test: COLO 205 colon tumor xenografts in SCID mice; assay type: in vivo
Description: (§1) Antibody conjugates with DM1 using the SMCC linker show anti-tumor efficacy against human tumor xenografts in mice (FIGS. 10A-C). […] In this experiment, one group of five animals bearing established subcutaneous tumors was treated with huC242-SMCC-DM1 at a dose of 150 μg/kg of conjugated DM1. Tumor sizes were measured periodically and graphed vs. time after tumor inoculation. […] In this experiment, three groups of five animals each bearing established subcutaneous SNU tumors were treated with huC242-SMCC-DM1 at doses of 15 μg/kg, 30 μg/kg, and 60 μg/kg of conjugated DM1, respectively. Tumor sizes were measured periodically and graphed vs. time after tumor inoculation.

COLO 205 cells = test: indirect FACS binding assay on COLO 205 cells; set-up: species or system human; settings: 5×10^3 cells per well, three hour primary incubation on ice
Description: The inventors carried out binding and cytotoxicity studies on the huC242-non-S-containing non-cleavable linker-DM1 conjugate. First, the binding affinities of huC242 antibody, huC242-SMNP-DM3, and huC242-non-S-containing non-cleavable linker-DM1 to COLO 205 cells were compared. 5×10^3 cells per well were used, with a three hour primary incubation on ice. The huC242-non-S-containing non-cleavable linker-DM1 conjugate had about a two-fold higher apparent dissociation constant than free antibody (see FIG. 23).

Namalwa cells = test: cell destroying activity, antigen-negative cells (bystander study); assay type: cell-based
Source text: (§2) An additional aspect of conjugates prepared with non-cleavable linkers compared to conjugates that have cleavable disulfide linkers is the absence of activity toward antigen-negative cells when in close proximity to antigen-positive cells, termed here the bystander effect. That is, the conjugates prepared with non-cleavable linkers have minimal bystander activity. […] This minimal bystander activity of the non-cleavable conjugate, as measured in this in vitro assay, may contribute to the increased tolerability of conjugate with non-cleavable linkers observed in acute toxicity studies.

SKBR3 cells = test: continuous exposure clonogenic assay, antigen-positive cells; assay type: cell-based, human
Source text: (§3) Cell-binding agent maytansinoid conjugates of the invention can be evaluated for their ability to suppress proliferation of various cell lines in vitro. For example, cell lines such as the human colon carcinoma line COLO205, the human melanoma cell line A375, the human myeloid leukemia cell line HL60, the human breast carcinoma line SKBR3, or the human epidermoid carcinoma cell line KB can be used for the assessment of cytotoxicity of these conjugates. Cells to be evaluated can be exposed to the compounds for 24 hours and the surviving fractions of cells measured in direct assays by known methods. (See, e.g. Goldmacher et al., 135 J. Immunol. 3648-3651 (1985), and Goldmacher et al., 102 J. Cell Biol. 1312-1319 (1986).) IC50 values can then be calculated from the results of the assays.
(§4) The in vitro cytotoxicity and specificity of the huC242-SMCC-DM1 conjugate were evaluated using a continuous exposure clonogenic assay.

[2] = in vitro clonogenic / indirect cytotoxicity assays, cell line not given; assay type: cell-based; settings: clonogenic (FIG. 6A-C) and indirect cytotoxicity assays (FIG. 7)
Source text: as §3

[3] = acute toxicity test, single intravenous dose; assay type: in vivo, female CD-1 mice; settings: single intravenous dose
Description: Maytansinoid conjugates prepared with non-cleavable linkers such as SMCC show an unexpected increased tolerability in mice compared with conjugates prepared with cleavable disulfide linkers. An acute toxicity test with a single intravenous dose was carried out in female CD-1 mice. A comparison of the tolerability of a huC242-SMCC-DM1 conjugate (non-cleavable) with huC242 conjugates prepared with linkers containing cleavable disulfide bonds was conducted by monitoring the death of mice (FIGS. 12A and B) and signs of toxicity (FIGS. 12C and D) over a series of four escalating doses of each conjugate. The maximum tolerated dose (MTD) for the SMCC-DM1 conjugate was greater than the highest dose tested (150 mg/kg) while the MTD for the disulfide-linked conjugate SPP-DM1 was in the range of 45-90 mg/kg.

COLO205 cells = test: cell cycle arrest by flow cytometry; assay type: cell-based, human; settings: 30 hours post-treatment
Description: Maytansinoid conjugates are thought to impart their cell destroying activity through the inhibition of microtubule polymerization. This inhibition of microtubule polymerization leads to an arrest of the cell cycle principally at G2/M. The antigen-dependent arrest of cells at G2/M by antibody-maytansinoid conjugates can be monitored by flow cytometry analysis (FIG. 13). Treatment of COLO205 cells with huC242-SPP-DM1 or huC242-SMCC-DM1 conjugate results in a complete G2/M arrest by 6-10 hours. […] The difference in the durability of the activity of these two conjugates is also reflected in percentage of dead cells at the 30 hour time point, as judged by a dye exclusion assay using trypan blue.

COLO 205 cell line = test: cell destroying activity, antigen-positive cells (bystander study); assay type: cell-based, human; settings: COLO 205 cultured separately
Source text: as §2

[4] = plasma clearance of conjugates; assay type: in vivo
Source text: This is in sharp contrast to plasma clearance of conjugates prepared with relatively labile disulfide bonds such as huC242-SPP-DM1. […] The non-cleavable SMCC linkage is therefore much more resistant to maytansinoid-linker cleavage activities present in vivo than the SPP-DM1 conjugate. […] This increased exposure could have substantial impact on drug efficacy in some cases.

[5] = test system: SNU16 human gastric tumor xenografts; test: SNU16 human gastric tumor xenografts in SCID mice; assay type: in vivo
Description: as §1

[6] = Pharmacokinetic Studies of huC242-SPP-DM1 and huC242-SCC-DM1 conjugates inCD-1 Mice Plasma clearance curves and Pharmacokinetic parameters
Source text: Table printed on a drawing sheet, FIG. 11
Title: Pharmacokinetic Studies of huC242-SPP-DM1 and huC242-SCC-DM1 conjugates inCD-1 Mice Plasma clearance curves and Pharmacokinetic parameters
First reader's note: Rows without -DM1 (huC242-SMCC, huC242-SPP) appear to be the antibody component of the same conjugates, as in the plot legend; study in CD-1 mice.

A375 cells = test: continuous exposure clonogenic assay, antigen-negative cells; assay type: cell-based, human
Source text: as §3, §4

[7] = 150 μg/kg of conjugated DM1, of five animals

B1: huC242-SMCC-DM1: huC242 antibody linked to maytansinoid DM1 via the non-cleavable linker SMCC (conjugate, chains of the INN, looked up)
VH: QVQLVQSGAEVKKPGETVKISCKASDYTFTYYGMNWVKQAPGQGLKWMGWIDTTTGEPTYAQKFQGRIAFSLETSASTAYLQIKSLKSEDTATYFCARRGPYNWYFDVWGQGTTVTVSS
VL: DIVMTQSPLSVPVTPGEPVSISCRSSKSLLHSNGNTYLYWFLQRPGQSPQLLIYRMSNLVSGVPDRFSGSGSGTAFTLRISRVEAEDVGVYYCLQHLEYPFTFGPGTKLELK
modifications: DM1 via SMCC linker
tumor response ([1]; 150 μg/kg of conjugated DM1, five animals, established subcutaneous tumors): All five treated animals had a complete remission
animals that relapsed after complete remission [1, 7]: three
animals tumor-free until termination of the experiment [1, 7]: two
effect on mouse body weight ([1]; at conjugate doses with anti-tumor activity): no effect on mouse body weight
time some mice remained free of detectable tumors post-treatment ([1]; sentence citing FIG. 10B, text prints COLO 205): over 2 months
tumor response (sentence citing FIG. 10B) ([1]; text prints COLO 205 colon carcinoma xenografts): complete regression of tumors
Kd (COLO 205 cells): 0.552 nM
cell destroying activity (Namalwa cells; Namalwa cultured separately): no activity
bystander cell destroying activity toward Namalwa cells (Namalwa cells; co-cultures of COLO 205 and Namalwa cells): No cell destroying activity
IC50 (SKBR3 cells): 0.0035 nM
potency compared to conjugates prepared with disulfide-containing linkers [2]: equal or greater potency
survival / lethal toxicity ([3]; at 150 mg/kg): all mice in the SMCC-DM1 treated group survived
maximum tolerated dose (MTD) ([3]; female CD-1 mice): > 150 mg/kg
durability of cell cycle arrest (COLO205 cells): do not escape from the cell cycle block
cell destroying activity (COLO 205 cell line): potent cell destroying activity
increase in overall maytansinoid exposure (AUC) compared to SPP-DM1 conjugates ([4]; area under the curve): ~5 fold
half-life for clearance ([4]; plasma, conjugate, FIG. 11): approximately 320 hours
antitumor effect ([5]; 15, 30 and 60 μg/kg of conjugated DM1, established subcutaneous SNU tumors): dose-dependent antitumor effect
effect on mouse body weight ([5]; at active conjugate concentration): no effect on mouse body weight
AUC | [6]: 40374.2 µg·h/mL
CL | [6]: 7.2 mL/day/kg
Vss | [6]: 0.1125 L/kg
t1/2 | hour [6]: 13.26 days
fold less sensitive than SKBR3 cells (A375 cells; antigen negative A375 vs antigen positive SKBR3): about 800 fold
IC50 (A375 cells; antigen-negative A375 cells, continuous exposure clonogenic assay): > 3 nM
